Source: US20250128187A1

Molecular target: streptavidin immobilized on membrane (streptavidin modified membrane prepared according to FIG. 10) (Streptomyces avidinii) (UniProt P22629)
Assay: depletion from solution; 0.0055 mL streptavidin membrane incubated in 0.4 mL of 1 mg/mL biotin-conjugate for 24 hours

Chain of streptavidin immobilized on membrane (streptavidin modified membrane prepared according to FIG. 10) (Streptomyces avidinii) (P22629 37-163 limits assumed): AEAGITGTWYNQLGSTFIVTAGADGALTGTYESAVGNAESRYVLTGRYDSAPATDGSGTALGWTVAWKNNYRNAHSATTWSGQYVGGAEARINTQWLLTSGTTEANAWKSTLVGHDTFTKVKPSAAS

Substance	Amount Immobilized (mg biotin-conjugate/mL membrane) (mg biotin-conjugate/mL membrane)
Biotin-BSA (from UniProt P02769 25-607)	38.6
Biotin-Mal 1	9.71
